Where two headings read alike, the source gives them in different places.
T1: hIFIT3 (Homo sapiens, UniProt O14879 1-490)
T1 sequence: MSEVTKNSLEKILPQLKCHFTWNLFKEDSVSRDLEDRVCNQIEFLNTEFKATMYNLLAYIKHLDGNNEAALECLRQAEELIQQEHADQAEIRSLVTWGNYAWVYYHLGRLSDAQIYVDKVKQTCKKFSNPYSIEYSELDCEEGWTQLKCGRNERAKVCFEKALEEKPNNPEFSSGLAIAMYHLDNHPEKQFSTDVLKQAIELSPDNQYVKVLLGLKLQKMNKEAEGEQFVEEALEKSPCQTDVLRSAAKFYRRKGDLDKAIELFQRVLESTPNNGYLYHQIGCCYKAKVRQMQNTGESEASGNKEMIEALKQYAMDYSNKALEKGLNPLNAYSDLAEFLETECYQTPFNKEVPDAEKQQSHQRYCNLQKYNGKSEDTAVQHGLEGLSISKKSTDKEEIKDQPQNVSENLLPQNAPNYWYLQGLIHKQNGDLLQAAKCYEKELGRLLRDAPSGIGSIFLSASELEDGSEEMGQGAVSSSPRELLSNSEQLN

T2: hIFIT5 (Homo sapiens, UniProt Q13325 1-482)
T2 sequence: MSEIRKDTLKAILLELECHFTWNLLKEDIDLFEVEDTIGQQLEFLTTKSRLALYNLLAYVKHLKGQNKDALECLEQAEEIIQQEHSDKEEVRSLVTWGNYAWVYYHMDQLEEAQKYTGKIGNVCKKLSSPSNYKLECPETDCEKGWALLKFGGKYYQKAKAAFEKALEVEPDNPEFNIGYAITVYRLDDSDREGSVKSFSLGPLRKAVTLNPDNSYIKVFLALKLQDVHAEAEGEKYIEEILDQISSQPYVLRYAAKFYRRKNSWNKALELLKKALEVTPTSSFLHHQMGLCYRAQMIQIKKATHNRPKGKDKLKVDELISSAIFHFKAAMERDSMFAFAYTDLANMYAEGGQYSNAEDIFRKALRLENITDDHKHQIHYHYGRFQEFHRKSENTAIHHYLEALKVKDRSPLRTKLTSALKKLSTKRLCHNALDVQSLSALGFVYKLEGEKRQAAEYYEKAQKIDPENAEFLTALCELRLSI

T3: hIFIT2 (Homo sapiens, UniProt P09913 1-472)
T3 sequence: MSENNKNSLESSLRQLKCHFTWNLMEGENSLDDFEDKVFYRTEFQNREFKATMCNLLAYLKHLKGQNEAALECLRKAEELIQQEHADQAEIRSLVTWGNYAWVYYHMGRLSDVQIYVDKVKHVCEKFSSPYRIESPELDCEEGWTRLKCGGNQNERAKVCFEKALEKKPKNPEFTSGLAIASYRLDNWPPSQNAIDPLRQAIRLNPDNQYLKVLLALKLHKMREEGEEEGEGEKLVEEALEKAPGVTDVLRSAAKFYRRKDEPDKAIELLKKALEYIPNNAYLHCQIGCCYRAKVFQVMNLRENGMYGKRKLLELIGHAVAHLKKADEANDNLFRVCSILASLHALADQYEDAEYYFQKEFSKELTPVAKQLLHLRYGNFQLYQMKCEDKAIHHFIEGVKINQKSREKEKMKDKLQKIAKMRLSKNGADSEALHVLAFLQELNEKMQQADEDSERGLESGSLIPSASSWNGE

T4: hIFIT1 (Homo sapiens, UniProt P09914 1-478)
T4 sequence: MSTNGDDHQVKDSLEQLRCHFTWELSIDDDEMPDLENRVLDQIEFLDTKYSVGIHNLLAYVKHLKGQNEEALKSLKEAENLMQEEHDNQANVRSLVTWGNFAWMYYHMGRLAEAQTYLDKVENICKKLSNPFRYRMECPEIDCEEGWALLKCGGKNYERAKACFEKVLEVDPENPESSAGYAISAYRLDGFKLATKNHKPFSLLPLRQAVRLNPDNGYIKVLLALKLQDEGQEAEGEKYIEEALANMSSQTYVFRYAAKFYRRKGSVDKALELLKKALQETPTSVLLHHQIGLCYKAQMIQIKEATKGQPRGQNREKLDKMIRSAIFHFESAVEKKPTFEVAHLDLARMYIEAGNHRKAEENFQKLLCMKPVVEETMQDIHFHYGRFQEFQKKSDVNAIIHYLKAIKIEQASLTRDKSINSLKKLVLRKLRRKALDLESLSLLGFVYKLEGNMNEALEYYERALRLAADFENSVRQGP


Legend:
Assay in all cases: EMSA
hIFIT3 = biological target: T1, hIFIT3
hIFIT5 = biological target: T2, hIFIT5
hIFIT2 = biological target: T3, hIFIT2
hIFIT1 [1] = biological target: T4, hIFIT1
hIFIT1 [2] = biological target: T4, hIFIT1; remark: listed apart in the source

Row | Binder | binding result (hIFIT3) | binding result (hIFIT5) | binding result (hIFIT2) | binding result (hIFIT1 [1]) | binding result (hIFIT1 [2])
1 | cap0 62-nt β-globin(G) RNA (ssRNA, m7Gppp cap0) RNA: GACACUUGCUUUUGACACAACUGUGUUUACUUGCAAUCCCCCAAAACAGACAGAAUGGUGCA | no binding | no binding | no binding | binds | 
2 | cap1 62-nt β-globin(G) RNA (ssRNA, m7GpppGm cap1) RNA: GACACUUGCUUUUGACACAACUGUGUUUACUUGCAAUCCCCCAAAACAGACAGAAUGGUGCA | no binding | no binding | no binding |  | no binding
